Target: calf thymus RNA Polymerase II (12-subunit enzyme, Form II; core of Form I) (bovine (calf thymus))
Assay: quantification of seven Coomassie stained SDS-PAGE gel bands of purified or reconstituted FI RNAPII

average molar ratio of Gdown1 to Rpb5 in FI RNAPII: 1 molar ratio
Substance: native calf thymus Gdown1 (41 kD polypeptide of Form I RNAPII) (from UniProt Q17QE3 1-370)
